From the supplement of paper PMC7877785
± gives the uncertainty stated by the source.

Experiment: self-splicing fitness, log relative to wild type (ln ratio); higher = more splicing; Tetrahymena group I intron in knt gene, E. coli kanamycin selection, DiMSum; sequences stand for … in CUCUCU…GGAGGGAAAAGUUAUCAGGCAUGCACCUGGUAGCUAGUCUUUAAACCAAUAGAUUGCAUCGGUUUAAAAGGCAAGACCGUCAAAUUGCGGGAAAGGGGUCAACAGCCGUUCAGUACCAAGUCUCAGGGGAAACUUUGAGAUGGCCUUGCAAAGGGUAUGGUAAUAAGCUGACGGACAUGGUCCUAACCACGCAGCCAAGUCCUAAGUCAACAGAUCUUCUGUUGAUAUGGAUGCAGUUCACAGACUAAAUGUCGGUCGGGGAAGAUGUAUUCUUCUCAUAAGAUAUAGUCGGACCUCUCCUUAAUGGGAGCUAGCGGAUGAAGUGAUGCAACACUGGAGCCGCUGGGAACUAAUUUGUAUGCGAAAGUAUAUUGAUUAGUUUUGGAGUACUCGUGGUCG
Outline: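 A randomised library covering all eight P1ex-region intron nucleotides was built with the intron in the knt kanamycin-resistance gene on pET-22b(+) and held in E. coli BL21(DE3). Cells were grown overnight at 37°C or 30°C on LB agar, with or without 25 μg/mL kanamycin, plus 100 μg/mL carbenicillin, 50 μM IPTG and 0.2% rhamnose, and pooled colonies were amplicon-sequenced on an Illumina HiSeq 2500. DiMSum fitness is the error-weighted combination of wild-type-normalised replicate fold changes, kanamycin versus none.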

| Sequence | self-splicing fitness (ln) (30 °C) | self-splicing fitness (ln) (37 °C) |
| --- | --- | --- |
| GACGAGCAAUAUUACGGUGG | -3.01 ± 0.16 | -2.77 ± 0.19 |
| CACGAGCAAUAUUACGCCCA | -1.81 ± 0.4 | -1.72 ± 0.28 |
| ACGUAGCAAUAUUACGCCGC | -3.7 ± 0.46 |  |
| CUAAAGCAAUAUUACGACAG | 0.277 ± 0.093 | 0.751 ± 0.12 |
| AUCUAGCAAUAUUACGGUCG | -2.96 ± 0.22 | 0.125 ± 0.18 |
| UGCCAGCAAUAUUACGUGCC | -1.03 ± 0.095 | 0.0809 ± 0.15 |
| CGACAGCAAUAUUACGCCAC |  | 0.365 ± 0.49 |
| ACAUAGCAAUAUUACGUGGG | -3.52 ± 0.12 | -2.75 ± 0.12 |
| CUACAGCAAUAUUACGUGGA | -2.58 ± 0.12 | -3.11 ± 0.21 |
| UAUAAGCAAUAUUACGAGAG | -3.52 ± 0.38 | -2.52 ± 0.27 |
| UACCAGCAAUAUUACGUGGA | -2.89 ± 0.15 | -2.08 ± 0.12 |
| UACAAGCAAUAUUACGGUUG | -2.1 ± 0.11 | -1.91 ± 0.15 |
| UACUAGCAAUAUUACGUUCA | -0.586 ± 0.08 | -0.193 ± 0.09 |
| AGGCAGCAAUAUUACGAGGG | -2.52 ± 0.11 | -2.83 ± 0.23 |
| CCACAGCAAUAUUACGCCGG | -3.23 ± 0.18 | -2.2 ± 0.19 |
| GAAAAGCAAUAUUACGUUCU | -3.87 ± 0.17 | -3.19 ± 0.18 |
| AAACAGCAAUAUUACGGGAC | -3.74 ± 0.25 | -2.35 ± 0.26 |
| UCCUAGCAAUAUUACGAUGG | -3.64 ± 0.23 | -2.15 ± 0.21 |
| GGGUAGCAAUAUUACGGGCA | -0.435 ± 0.25 | -0.58 ± 0.26 |
| ACGUAGCAAUAUUACGCAAA | -1.78 ± 0.21 | -2.42 ± 0.3 |
| CCUGAGCAAUAUUACGAAGA | -1.76 ± 0.18 | -1.69 ± 0.19 |
| AAAAAGCAAUAUUACGCGCG | -0.0286 ± 0.091 | -0.207 ± 0.11 |
| AUGGAGCAAUAUUACGUAUU | -3.29 ± 0.24 | -2.21 ± 0.16 |
| GCAAAGCAAUAUUACGAACA | -1.89 ± 0.14 | -1.73 ± 0.12 |

| Sequence | self-splicing fitness (ln) (30 °C) | self-splicing fitness (ln) (37 °C) |
| --- | --- | --- |
| AUCAAGCAAUAUUACGUAGA | -1.36 ± 0.094 | -1.66 ± 0.17 |
| UAGAAGCAAUAUUACGAGGU |  | -2.14 ± 0.2 |
| CCACAGCAAUAUUACGCCAG | -2.56 ± 0.15 | -1.07 ± 0.14 |
| UCCCAGCAAUAUUACGUAUA | -2.5 ± 0.1 | -1.33 ± 0.1 |
| CACAAGCAAUAUUACGAGUG | -4.41 ± 0.15 | -2.02 ± 0.12 |
| AAGUAGCAAUAUUACGGGUA | -1.49 ± 0.16 | -1.09 ± 0.17 |
| UGUGAGCAAUAUUACGUUUA | -2.98 ± 0.32 | -3.17 ± 0.47 |
| GCUGAGCAAUAUUACGGCGA | -1.43 ± 0.16 | -1.56 ± 0.2 |
| AUCCAGCAAUAUUACGGACU | -0.507 ± 0.068 | 0.126 ± 0.082 |
| AACCAGCAAUAUUACGUACA | -1.08 ± 0.08 | -0.429 ± 0.11 |
| UCCCAGCAAUAUUACGGGCG | -0.841 ± 0.058 | -0.455 ± 0.07 |
| ACCAAGCAAUAUUACGGCCU | -0.444 ± 0.072 | -0.31 ± 0.083 |
| AAAAAGCAAUAUUACGUAAC | -2.45 ± 0.13 | -1.12 ± 0.13 |
| UACCAGCAAUAUUACGCGUA | -1.9 ± 0.074 | -1.67 ± 0.093 |
| AUGAAGCAAUAUUACGACUC | 0.055 ± 0.11 | 0.123 ± 0.13 |
| GCCCAGCAAUAUUACGUGGG | -3.2 ± 0.12 | -3.07 ± 0.2 |
| UCAAAGCAAUAUUACGGAUG | -2.78 ± 0.08 | -1.32 ± 0.086 |
| UUGGAGCAAUAUUACGAGGG | -2.34 ± 0.22 | -2.6 ± 0.49 |
| CGUGAGCAAUAUUACGACUG | -0.73 ± 0.12 | -0.0318 ± 0.16 |
| UUGUAGCAAUAUUACGAGUA | -2.13 ± 0.31 | -1.22 ± 0.29 |
| AGGUAGCAAUAUUACGUACU | -0.29 ± 0.014 | -0.101 ± 0.034 |
| AUAAAGCAAUAUUACGGUGC | -1.95 ± 0.1 | -0.743 ± 0.13 |
| ACUCAGCAAUAUUACGGAUU | -0.597 ± 0.055 | 0.0271 ± 0.076 |
| AACGAGCAAUAUUACGGGAA | -2.18 ± 0.22 | -2.74 ± 0.27 |
